These results are taken from article PMC4559445.

The test has as its target PbTpk2^(226-583)-His6 (P. brasiliensis).

Consider PbGpb1-GST (natural protein), for which the in vitro kinase activity (ADP-Glo) of 3 μM PbTpk2 on 50 μM kemptide in the presence of 4 μM PbGpb1, relative to PbTpk2 with kemptide alone came to 40 % reduction.
